ChEMBL document CHEMBL1137898, “Benzopyranones with retro-amide side chains as (inhibitory) beta-lactamase substrates” (Bioorg Med Chem Lett, 2004)

Assays:
[1] = substrate: CC(=O)OCC1=C(C(=O)O)N2C(=O)[C@@H](NC(=O)Cc3cccs3)[C@H]2SC1; experiment: (§1) Km for Staphylococcus aureus PC1 Beta-lactamase hydrolysis
[2] = substrate: O=C(O)c1cccc2c1OC(=O)C(C(=O)NCc1ccccc1)C2; experiment: as §1
[3] = substrate: O=C(Cc1ccccc1)NC1Cc2cccc(C(=O)O)c2OC1=O; experiment: as §1
[4] = substrate: O=C(O)c1ccc2c(c1)OC(=O)C(C(=O)NCc1ccccc1)C2; experiment: as §1
[5] = substrate: CC(=O)OCC1=C(C(=O)O)N2C(=O)[C@@H](NC(=O)Cc3cccs3)[C@H]2SC1; experiment: (§2) Km for OXA-1 beta-lactamase hydrolysis
[6] = substrate: O=C(O)c1cccc2c1OC(=O)C(C(=O)NCc1ccccc1)C2; experiment: as §2
[7] = substrate: O=C(Cc1ccccc1)NC1Cc2cccc(C(=O)O)c2OC1=O; experiment: as §2
[8] = substrate: CC(=O)OCC1=C(C(=O)O)N2C(=O)[C@@H](NC(=O)Cc3cccs3)[C@H]2SC1; experiment: (§3) Km for Enterobacter cloacae P99 Beta-lactamase hydrolysis
[9] = substrate: O=C(O)c1cccc2c1OC(=O)C(C(=O)NCc1ccccc1)C2; experiment: as §3
[10] = substrate: O=C(Cc1ccccc1)NC1Cc2ccc(C(=O)O)cc2OC1=O; experiment: as §3
[11] = substrate: O=C(Cc1ccccc1)NC1Cc2cccc(C(=O)O)c2OC1=O; experiment: as §3
[12] = substrate: O=C(O)c1ccc2c(c1)OC(=O)C(C(=O)NCc1ccccc1)C2; experiment: as §3
[13] = substrate: O=C(O)c1cccc2c1OC(=O)C(C(=O)NCc1ccccc1)C2; experiment: (§4) Km for TEM-2 beta-lactamase hydrolysis
[14] = substrate: O=C(Cc1ccccc1)NC1Cc2ccc(C(=O)O)cc2OC1=O; experiment: as §4
[15] = substrate: O=C(Cc1ccccc1)NC1Cc2cccc(C(=O)O)c2OC1=O; experiment: as §4
[16] = substrate: O=C(O)c1ccc2c(c1)OC(=O)C(C(=O)NCc1ccccc1)C2; experiment: as §4

B1: Beta-lactamase (Staphylococcus aureus), P00807 (protein)
chain: MKKLIFLIVIALVLSACNSNSSHAKELNDLEKKYNAHIGVYALDTKSGKEVKFNSDKRFAYASTSKAINSAILLEQVPYNKLNKKVHINKDDIVAYSPILEKYVGKDITLKALIEASMTYSDNTANNKIIKEIGGIKKVKQRLKELGDKVTNPVRYEIELNYYSPKSKKDTSTPAAFGKTLNKLIANGKLSKENKKFLLDLMLNNKSGDTLIKDGVPKDYKVADKSGQAITYASRNDVAFVYPKGQSEPIVLVIFTNKDNKSDKPNDKLISETAKSVMKEF
- Km [1]: 1 µM
- Km [2]: 1.8 µM
- Km [3]: 0.3 µM
- Km [4]: > 200 µM

B2: Beta-lactamase OXA-1 (Escherichia coli), P13661 (protein)
chain: MKNTIHINFAIFLIIANIIYSSASASTDISTVASPLFEGTEGCFLLYDASTNAEIAQFNKAKCATQMAPDSTFKIALSLMAFDAEIIDQKTIFKWDKTPKGMEIWNSNHTPKTWMQFSVVWVSQEITQKIGLNKIKNYLKDFDYGNQDFSGDKERNNGLTEAWLESSLKISPEEQIQFLRKIINHNLPVKNSAIENTIENMYLQDLDNSTKLYGKTGAGFTANRTLQNGWFEGFIISKSGHKYVFVSALTGNLGSNLTSSIKAKKNAITILNTLNL
- Km [5]: 10 µM
- Km [6]: 7.4 µM
- Km [7]: 13.9 µM

B3: Beta-lactamase (Enterobacter cloacae), P05364 (protein)
chain: MMRKSLCCALLLGISCSALATPVSEKQLAEVVANTITPLMKAQSVPGMAVAVIYQGKPHYYTFGKADIAANKPVTPQTLFELGSISKTFTGVLGGDAIARGEISLDDAVTRYWPQLTGKQWQGIRMLDLATYTAGGLPLQVPDEVTDNASLLRFYQNWQPQWKPGTTRLYANASIGLFGALAVKPSGMPYEQAMTTRVLKPLKLDHTWINVPKAEEAHYAWGYRDGKAVRVSPGMLDAQAYGVKTNVQDMANWVMANMAPENVADASLKQGIALAQSRYWRIGSMYQGLGWEMLNWPVEANTVVEGSDSKVALAPLPVAEVNPPAPPVKASWVHKTGSTGGFGSYVAFIPEKQIGIVMLANTSYPNPARVEAAYHILEALQ
- Km [8]: 9 µM
- Km [9]: 0.2 µM
- Km [10]: 290 µM
- Km [11]: 620 µM
- Km [12]: 430 µM

B4: Beta-lactamase TEM (Escherichia coli), P62593 (protein)
chain: MSIQHFRVALIPFFAAFCLPVFAHPETLVKVKDAEDQLGARVGYIELDLNSGKILESFRPEERFPMMSTFKVLLCGAVLSRVDAGQEQLGRRIHYSQNDLVEYSPVTEKHLTDGMTVRELCSAAITMSDNTAANLLLTTIGGPKELTAFLHNMGDHVTRLDRWEPELNEAIPNDERDTTMPAAMATTLRKLLTGELLTLASRQQLIDWMEADKVAGPLLRSALPAGWFIADKSGAGERGSRGIIAALGPDGKPSRIVVIYTTGSQATMDERNRQIAEIGASLIKHW
- Km [13]: 290 µM
- Km [14]: > 1200 µM
- Km [15]: 50 µM
- Km [16]: > 200 µM
